{"source": "paper PMC2063960", "about": "(The Journal of Cell Biology, 2007)", "binders": {"B1": {"name": "p120-catenin, endogenous in HEK293 cells (natural protein, human (endogenous in HEK293), UniProt O60716 1-968, looked up)", "chain": "MDDSEVESTASILASVKEQEAQFEKLTRALEEERRHVSAQLERVRVSPQDANPLMANGTLTRRHQNGRFVGDADLERQKFSDLKLNGPQDHSHLLYSTIPRMQEPGQIVETYTEEDPEGAMSVVSVETSDDGTTRRTETTVKKVVKTVTTRTVQPVAMGPDGLPVDASSVSNNYIQTLGRDFRKNGNGGPGPYVGQAGTATLPRNFHYPPDGYSRHYEDGYPGGSDNYGSLSRVTRIEERYRPSMEGYRAPSRQDVYGPQPQVRVGGSSVDLHRFHPEPYGLEDDQRSMGYDDLDYGMMSDYGTARRTGTPSDPRRRLRSYEDMIGEEVPSDQYYWAPLAQHERGSLASLDSLRKGGPPPPNWRQPELPEVIAMLGFRLDAVKSNAAAYLQHLCYRNDKVKTDVRKLKGIPVLVGLLDHPKKEVHLGACGALKNISFGRDQDNKIAIKNCDGVPALVRLLRKARDMDLTEVITGTLWNLSSHDSIKMEIVDHALHALTDEVIIPHSGWEREPNEDCKPRHIEWESVLTNTAGCLRNVSSERSEARRKLRECDGLVDALIFIVQAEIGQKDSDSKLVENCVCLLRNLSYQVHREIPQAERYQEAAPNVANNTGPHAASCFGAKKGKDEWFSRGKKPIEDPANDTVDFPKRTSPARGYELLFQPEVVRIYISLLKESKTPAILEASAGAIQNLCAGRWTYGRYIRSALRQEKALSAIADLLTNEHERVVKAASGALRNLAVDARNKELIGKHAIPNLVKNLPGGQQNSSWNFSEDTVISILNTINEVIAENLEAAKKLRETQGIEKLVLINKSGNRSEKEVRAAALVLQTIWGYKELRKPLEKEGWKKSDFQVNLNNASRSQSSHSYDDSTLPLIDRNQKSDKKPDREEIQMSNMGSNTKSLDNNYSTPNERGDHNRTLDRSGDLGDMEPLKGTTPLMQDEGQESLEEELDVLVLDDEGGQVSYPSMQKI"}}, "target": "Myc-tagged dimeric ECDT (Myc-HR-ECDT) (UniProt P12830 731-882)", "sequence (P12830 731-882)": "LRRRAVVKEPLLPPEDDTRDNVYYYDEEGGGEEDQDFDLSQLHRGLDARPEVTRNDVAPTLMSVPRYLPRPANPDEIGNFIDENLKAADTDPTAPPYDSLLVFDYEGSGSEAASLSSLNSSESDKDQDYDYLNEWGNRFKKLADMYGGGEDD", "assay": "co-IP", "data": [{"binder": "B1", "values": [{"measurement": "fold affinity against the monomer (Myc-ECDT)", "result": "~10", "unit": "fold"}]}]}
